In patent US20200317768A1 (published 2020):

T1: human FcγRIIb extracellular domain, C-terminal His-tag (human, UniProt P31994 43-217)
T1 construct: also called FcgRIIb (human)
T1 sequence: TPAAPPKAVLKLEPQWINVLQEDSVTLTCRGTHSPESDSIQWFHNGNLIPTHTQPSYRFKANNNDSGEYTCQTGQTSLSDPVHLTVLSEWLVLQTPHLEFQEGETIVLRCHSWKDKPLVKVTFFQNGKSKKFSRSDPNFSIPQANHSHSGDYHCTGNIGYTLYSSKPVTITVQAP

T2: human FcγRIIaR extracellular domain, C-terminal His-tag (human, UniProt P12318 34-217)
T2 construct: also called human FcγRIIa (type R); FcgRIIaR
T2 chain: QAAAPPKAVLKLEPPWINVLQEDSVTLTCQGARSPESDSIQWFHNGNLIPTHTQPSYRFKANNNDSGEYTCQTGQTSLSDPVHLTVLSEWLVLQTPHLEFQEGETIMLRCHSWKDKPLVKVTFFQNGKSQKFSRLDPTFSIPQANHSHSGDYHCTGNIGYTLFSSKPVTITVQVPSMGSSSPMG

T3: cynomolgus monkey FcγRIIa1 extracellular domain, C-terminal His-tag (cynomolgus monkey)
T3 construct: also called cyno FcγRIIa1; FcgRIIa1
T3 chain: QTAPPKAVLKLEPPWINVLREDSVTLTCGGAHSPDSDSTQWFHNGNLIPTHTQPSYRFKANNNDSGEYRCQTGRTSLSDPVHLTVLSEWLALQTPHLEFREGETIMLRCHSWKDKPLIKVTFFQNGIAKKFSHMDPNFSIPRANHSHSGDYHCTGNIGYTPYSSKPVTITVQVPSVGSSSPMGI

T4: cynomolgus monkey FcγRIIb extracellular domain, C-terminal His-tag (cynomolgus monkey)
T4 construct: also called cyno FcγRIIb; cynoFcγRIIb
T4 chain: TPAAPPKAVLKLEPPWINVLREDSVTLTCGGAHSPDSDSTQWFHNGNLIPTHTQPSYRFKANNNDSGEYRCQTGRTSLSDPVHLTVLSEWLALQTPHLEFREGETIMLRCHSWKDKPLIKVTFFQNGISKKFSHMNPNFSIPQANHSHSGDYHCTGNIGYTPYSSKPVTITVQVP

T5: cynomolgus monkey FcγRIIa2 extracellular domain, C-terminal His-tag (cynomolgus monkey)
T5 construct: also called cyno FcγRIIa2; FcgRIIa2
T5 chain: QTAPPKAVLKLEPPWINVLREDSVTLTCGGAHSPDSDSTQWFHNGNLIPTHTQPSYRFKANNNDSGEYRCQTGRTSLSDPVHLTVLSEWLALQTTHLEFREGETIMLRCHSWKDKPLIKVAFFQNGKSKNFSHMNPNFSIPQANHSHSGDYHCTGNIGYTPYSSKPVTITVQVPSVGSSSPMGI

T6: cynomolgus monkey FcγRIIa3 extracellular domain, C-terminal His-tag (cynomolgus monkey)
T6 construct: also called cyno FcγRIIa3; FcgRIIa3
T6 chain: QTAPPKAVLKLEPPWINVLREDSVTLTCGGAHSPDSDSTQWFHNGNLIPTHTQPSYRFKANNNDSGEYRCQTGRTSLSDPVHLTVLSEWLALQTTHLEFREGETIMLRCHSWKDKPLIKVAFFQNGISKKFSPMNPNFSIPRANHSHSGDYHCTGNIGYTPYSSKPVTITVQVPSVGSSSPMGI

T7: human FcγRIIaH extracellular domain, C-terminal His-tag (human, UniProt P12318 34-217)
T7 construct: also called human FcγRIIa (type H); FcgRIIaH
T7 sequence: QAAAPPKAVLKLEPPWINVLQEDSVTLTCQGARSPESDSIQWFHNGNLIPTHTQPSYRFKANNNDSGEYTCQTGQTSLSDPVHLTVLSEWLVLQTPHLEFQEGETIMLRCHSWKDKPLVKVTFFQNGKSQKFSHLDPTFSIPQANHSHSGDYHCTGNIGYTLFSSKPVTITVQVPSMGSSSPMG


Assays:
Test in all cases: SPR; KD of SG1 / KD of variant;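 note: relative to parent M103205H795-SG1 carrying the SG1 human heavy chain constant region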
[1] = target: T1, human FcγRIIb extracellular domain, …
Description: (§1) The kinetic analysis of interactions between these antibodies and FcγR was carried out using BIACORE® T200 or BIACORE® 4000 (GE Healthcare). HBS-EP+ (GE Healthcare) was used as the running buffer, and the measurement temperature was set to 25° C. A chip produced by immobilizing Protein A. Protein A/G or mouse anti-human IgG kappa light chain (BD Biosciences) onto a Series S Sensor Chip CM4 or CM5 (GE Healthcare) by the amine-coupling method was used. […] After the measurement, the antibody captured on the chip was washed off by allowing reaction with 10 mM glycine-HCl, pH1.5 and 25 mM NaOH so that the chip was regenerated and used repeatedly. The sensorgrams obtained as measurement results were analyzed by the 1:1 Langmuir binding model using the BIACORE® Evaluation Software to calculate the binding rate constant ka (L/mol/s) and dissociation rate constant kd (l/s), and the dissociation constant KD (mol/L) was calculated from these values. […] Regarding such interactions, KD values were calculated using the following 1:1 binding model described in BIACORE® T100 Software Handbook BR1006-48 Edition AE.

[2] = target: T2, human FcγRIIaR extracellular domain, …
Description: as §1

[3] = target: T3, cynomolgus monkey FcγRIIa1 …
Description: as §1

[4] = target: T4, cynomolgus monkey FcγRIIb extracellular …
Description: as §1

[5] = target: T5, cynomolgus monkey FcγRIIa2 …
Description: as §1

[6] = target: T6, cynomolgus monkey FcγRIIa3 …
Description: as §1

[7] = target: T7, human FcγRIIaH extracellular domain, …
Description: as §1

| KD fold (SG1 = 1) [1] [fold] | KD fold (SG1 = 1) [2] [fold] | KD fold (SG1 = 1) [3] [fold] | KD fold (SG1 = 1) [4] [fold] | KD fold (SG1 = 1) [5] [fold] | KD fold (SG1 = 1) [6] [fold] | KD fold (SG1 = 1) [7] [fold] | Binder |
| --- | --- | --- | --- | --- | --- | --- | --- |
| 1 | 1 | 1 | 1 | 1 | 1 | 1 | MS_M103205H795-SG1/M103202L889-SK1 (antibody, human IgG1, kappa, also called MS1032LO06-SG1) heavy: not shown light: DIVMTQSPATLSLSPGERATLSCTSSQSVYHANWLSWFQQKPGQPPKLLIYWASTLAYGVPSRFSGSGSGTDFTLTISSLQPEDAATYYCAGGYGGGRYAFGQGTKVEIKRTVAAPSVFIFPPSDEQLKSGTASVVCLLNNFYPREAKVQWKVDNALQSGNSQESVTEQDSKDSTYSLSSTLTLSKADYEKHKVYACEVTHQGLSSPVTKSFNRGEC |
| 3.3 | 0.1 | 0.2 | 0.4 | 0.2 | 0.5 | 0.01 | M103205H795-MY009/M103202L889-SK1 (antibody, human IgG1, kappa, CH MY009 = SG1 with P238D (EU numbering); also called MS1032LO06-MY009) heavy: not shown light: DIVMTQSPATLSLSPGERATLSCTSSQSVYHANWLSWFQQKPGQPPKLLIYWASTLAYGVPSRFSGSGSGTDFTLTISSLQPEDAATYYCAGGYGGGRYAFGQGTKVEIKRTVAAPSVFIFPPSDEQLKSGTASVVCLLNNFYPREAKVQWKVDNALQSGNSQESVTEQDSKDSTYSLSSTLTLSKADYEKHKVYACEVTHQGLSSPVTKSFNRGEC |
